“Also recorded” adds a separate entry of the source.
Columns and labels:
pro-collagen type 1 = pro-collagen type 1 production by human skin fibroblasts; type: cell-based; settings: TGF-beta, 10 nM, FIG. 21
Source text: To test this we used a cell culture model of skin healing/scarring, which employed the use of primary human skin fibroblasts derived from foreskins collected post circumcision. These have been used extensively in the past to grown in culture and treated with agents that are known to drive wound healing and or scarring. We were also interested in a rare form of skin fibrosis/scarring that can lead to systemic disease and death known as nephrogenic systemic fibrosis (NSF). NSF is a complication of NMR diagnostics in renal impaired patients, where gadolinium (GAD), a heavy metal, is used as a contrast agent, but in some cases appears to deposit in skin. Although the mechanism for development of skin fibrosis and subsequent systemic disease is not yet completely understood, we have developed a model that has allowed elucidation of the probable pathway to skin fibrosis (Bhagavathula, N., M. K. Dame, M. DaSilva, W. Jenkins, M. N. Aslam, P. Perone and J. Varani (2010)). “Fibroblast response to gadolinium: role for platelet-derived growth factor receptor.” Invest Radiol 45(12): 769-777). This disease is characterized as a hyperproliferative disease, and in our model it was shown that PDGF produced by resident skin fibroblasts are stimulated by GAD to increase their production of PDGF which acts to induce proliferation and the increased production of MMPs, regulators of ECM breakdown and thus turnover, including the major MMP, MMP-1. At the same time tissue inhibitors of MMPs (TIMPs) are also affected by exposure to GAD. […]
We examined the role of CCN3 and CCNp in fibroproliferative/fibrotic responses in human dermal fibroblasts exposed to Omniscan, one of the gadolinium-based contrast agents associated with development of nephrogenic systemic fibrosis. […] Cellular proliferation was assessed along with MMP-1 (by ELISA and gelatin zymography), TIMP-1 (by ELISA) and COL1 (by ELISA) in the absence and presence of CCN3 and CCNp. […] In parallel, CCN3 production was assessed in control and Omniscan-treated cells. […]

BTBR Ob/Ob mouse = BTBR Ob/Ob mouse model of diabetic renal disease; type: in vivo
Method: This was carried out using the BTBR Ob/Ob mouse strain that has a defective leptin receptor that results in increased appetite. As a result it rapidly gains weight over the control strain and becomes hyperglycemic at about one month of age, going on to develop renal disease resembling that in humans. This is regarded by some to be the rodent model best mirroring renal disease in humans as a complication of diabetes. Animals were treated with either rCCN3 (SEQ. ID. NO: 67) or CCNp38 (SEQ. ID. NO: 38) beginning at 9 weeks of age, when early renal disease has been documented. The disease was allowed to develop for 9 weeks, then treatment started. Mice were treated 3 times per week for 8 weeks. At 17 weeks, blood and urine were collected, and animals sacrificed with organ samples collected. The effect of treatment with either CCN3 (2 concentrations, 2 or 20× the circulating amounts) or mimic peptide (CCNp38, 2 concentrations, 20 or 200× the equivalent molar circulating concentration of CCN3) was tested. Assays to determine the effect of CCN3 or peptide on expression of target fibrosis genes and clinical pathology were determined using methods as previously described (Riser, Amer J Pathology 2009) and (McIntosh, L M, et al., Selective CCR2-targeted macrophage depletion ameliorates experimental mesangioproliferative glomerulonephritis, Clinical and Experimental Immunology, 2008, 155, 295-303).
This was carried out using the BT/BR Ob/Ob mouse strain that has a defective leptin receptor that results in increased appetite. As a result mice rapidly gain weight over the control strain and become hyperglycemic at about one month of age going on to develop renal disease resembling that in humans. This is regarded by some to be the best rodent model for mirroring renal disease in humans as a complication of diabetes. […] Animals were treated with either rCCN3 (SEQ. ID. NO: 67) or CCNp38 (SEQ. ID. NO: 38) beginning at 9 weeks of age, when early renal disease has been documented. Mice were treated for 8 weeks, then sacrificed and measured for renal disease and other complications, and the effect drug treatment. Test animals were documented to have developed diabetes by 9 weeks, and were randomized for treatment, thus providing equivalent blood glucose levels in each treated group.

B1: CCN3: full-length recombinant human CCN3 protein (SEQ. ID. No. 67), commercial (Pepro Tech) or made in HEK-293 (protein)
chain: MQVAATQRCPPQCPGRCPATPPTCAPGVRAVLDGCSCCLVCARQRGESCSDLEPCDESSGLYCDRSADPSNQTGICTAVEGDNCVFDGVIYRSGEKFQPSCKFQCTCRDGQIGCVPRCQLDVLLPEPNCPAPRKVEVPGECCEKWICGPDEEDSLGGLTLAAYRPEATLGVEVSDSSVNCIEQTTEWTACSKSCGMGFSTRVTNRNRQCEMLKQTRLCMVRPCEQEPEQPTDKKGKKCLRTKKSLKAIHLQFKNCTSLHTYKPRFCGVCSDGRCCTPHNTKTIQAEFQCSPGQIVKKPVMVIGTCTCHTNCPKNNEAFLQELELKTTRGKM
With B1 the “block of TGF-beta-induced increase in pro-collagen production” value (pro-collagen type 1) was “completely block the increase”, the “effect on elevated plasma creatinine” value (BTBR Ob/Ob mouse; 17 weeks of diabetes, 8 weeks of treatment 3 times per week, FIG. 35) was “reduces or blocks this pathology; also recorded: reduces or blocks this impairment” and the “effect on elevated albumin to creatinine ratio” value (BTBR Ob/Ob mouse; 17 weeks of diabetes, 8 weeks of treatment, FIG. 36) was “greatly blocks this pathology; also recorded: greatly blocks this renal damage”. The “effect on mesangial expansion (PAS staining, image analysis)” value (BTBR Ob/Ob mouse; 17 weeks of diabetes, 8 weeks of treatment, FIG. 37) was “greatly block this pathology and treats the disease; also recorded: greatly blocks this pathology”, the “effect on increased renal mRNA levels for CCN2” value (BTBR Ob/Ob mouse; kidney, 8 weeks of treatment, FIG. 38) was “greatly reduces or blocks the increase” and the “effect on increased renal mRNA levels for Col1A2” value (BTBR Ob/Ob mouse; kidney, 8 weeks of treatment, FIG. 39) was “greatly reduces or blocks the increase”.
